Laboratory results from US20250145690A1 (US Dept. of Health and Human Services, published 2025).
Changes are numbered by the printed parent chain.

Key:
Assay in all cases: bead flow cytometry, AUC minus CD4
[1] = target: T1, HCoV-NL63 spike protein (Sino Biological 40604-V08B) (HCoV-NL63, UniProt Q6Q1S2 19-1296)
T1 sequence: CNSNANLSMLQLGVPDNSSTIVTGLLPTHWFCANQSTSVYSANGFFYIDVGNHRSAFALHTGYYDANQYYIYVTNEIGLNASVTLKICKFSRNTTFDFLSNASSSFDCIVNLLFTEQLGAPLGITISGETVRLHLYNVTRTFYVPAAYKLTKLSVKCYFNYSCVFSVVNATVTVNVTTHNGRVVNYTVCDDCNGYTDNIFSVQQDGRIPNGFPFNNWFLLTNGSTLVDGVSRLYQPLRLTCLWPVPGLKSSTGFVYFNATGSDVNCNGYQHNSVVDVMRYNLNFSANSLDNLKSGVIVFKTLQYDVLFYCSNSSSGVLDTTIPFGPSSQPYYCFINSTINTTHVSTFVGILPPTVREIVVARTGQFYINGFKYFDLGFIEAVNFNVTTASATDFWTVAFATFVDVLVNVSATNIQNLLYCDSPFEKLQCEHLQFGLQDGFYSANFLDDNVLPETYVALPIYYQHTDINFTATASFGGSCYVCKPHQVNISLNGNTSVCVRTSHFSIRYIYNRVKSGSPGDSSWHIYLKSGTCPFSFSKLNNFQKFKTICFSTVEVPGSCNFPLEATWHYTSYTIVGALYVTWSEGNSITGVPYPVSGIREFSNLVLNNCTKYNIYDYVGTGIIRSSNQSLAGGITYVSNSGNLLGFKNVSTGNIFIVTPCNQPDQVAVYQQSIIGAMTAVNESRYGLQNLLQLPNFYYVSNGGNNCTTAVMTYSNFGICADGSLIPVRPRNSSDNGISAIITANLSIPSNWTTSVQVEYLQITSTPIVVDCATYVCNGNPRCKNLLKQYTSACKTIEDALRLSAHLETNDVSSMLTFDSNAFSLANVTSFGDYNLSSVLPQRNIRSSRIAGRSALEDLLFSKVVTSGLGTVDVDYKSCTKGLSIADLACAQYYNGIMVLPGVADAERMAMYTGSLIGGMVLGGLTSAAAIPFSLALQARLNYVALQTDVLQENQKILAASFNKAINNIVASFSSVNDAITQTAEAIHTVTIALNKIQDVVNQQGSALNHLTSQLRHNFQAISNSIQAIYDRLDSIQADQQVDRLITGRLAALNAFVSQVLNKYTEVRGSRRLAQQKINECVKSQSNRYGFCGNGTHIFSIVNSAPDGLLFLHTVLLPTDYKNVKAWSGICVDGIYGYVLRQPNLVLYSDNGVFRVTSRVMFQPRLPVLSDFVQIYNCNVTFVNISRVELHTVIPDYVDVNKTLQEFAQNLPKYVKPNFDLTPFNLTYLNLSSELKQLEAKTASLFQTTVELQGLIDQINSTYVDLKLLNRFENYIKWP

[2] = target: T2, HCoV-229E spike protein (Sino Biological 40605-V08B) (HCoV-229E, UniProt P15423 16-1115)
T2 sequence: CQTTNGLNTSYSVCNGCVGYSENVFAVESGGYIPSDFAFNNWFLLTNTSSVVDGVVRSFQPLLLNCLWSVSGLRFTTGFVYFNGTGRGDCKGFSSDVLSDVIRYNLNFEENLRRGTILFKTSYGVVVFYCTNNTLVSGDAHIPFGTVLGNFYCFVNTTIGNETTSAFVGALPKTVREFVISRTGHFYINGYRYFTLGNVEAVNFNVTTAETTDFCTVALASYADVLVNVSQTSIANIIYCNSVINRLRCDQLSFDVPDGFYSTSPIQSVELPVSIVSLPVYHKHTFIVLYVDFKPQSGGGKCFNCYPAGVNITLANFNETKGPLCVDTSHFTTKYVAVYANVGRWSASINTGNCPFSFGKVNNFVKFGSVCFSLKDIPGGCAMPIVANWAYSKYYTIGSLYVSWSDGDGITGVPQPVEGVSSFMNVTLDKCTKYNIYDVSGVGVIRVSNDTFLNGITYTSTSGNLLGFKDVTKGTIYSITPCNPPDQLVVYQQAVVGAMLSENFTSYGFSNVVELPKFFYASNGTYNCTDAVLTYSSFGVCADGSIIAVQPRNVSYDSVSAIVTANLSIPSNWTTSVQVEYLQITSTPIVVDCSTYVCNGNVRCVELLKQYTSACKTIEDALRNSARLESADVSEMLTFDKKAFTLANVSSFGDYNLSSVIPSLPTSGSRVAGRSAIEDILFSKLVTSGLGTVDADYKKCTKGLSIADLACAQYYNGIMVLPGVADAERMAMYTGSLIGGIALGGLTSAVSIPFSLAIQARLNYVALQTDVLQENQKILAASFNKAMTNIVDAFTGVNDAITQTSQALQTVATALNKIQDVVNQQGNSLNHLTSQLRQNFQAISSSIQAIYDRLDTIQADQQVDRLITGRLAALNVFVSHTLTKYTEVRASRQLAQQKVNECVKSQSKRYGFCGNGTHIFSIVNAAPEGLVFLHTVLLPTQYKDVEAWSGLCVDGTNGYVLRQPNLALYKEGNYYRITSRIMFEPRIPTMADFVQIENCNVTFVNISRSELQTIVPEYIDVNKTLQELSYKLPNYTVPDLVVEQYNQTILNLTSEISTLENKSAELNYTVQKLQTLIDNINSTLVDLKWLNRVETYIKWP

[3] = target: SARS-CoV-2 spike N-terminal domain (NTD), recombinant (SARS-CoV-2, UniProt P0DTC2 14-305)
[4] = target: SARS-CoV-2 spike receptor binding domain (RBD), recombinant (SARS-CoV-2, UniProt P0DTC2 319-541)

Measured: binding result

B1: COV30-14 (antibody, V domains shown)
VH: QVQLVQSGAEVKKPGASVKVSCQTSGYTFTSYYMHWVRQAPGQGLEWMGLITPSGDDTYYAQRFQGRVTMTRDTSTSPTYMELSSLTSEDTAVYYCAKMSRAGGFDVWGQGTLVTVSS
VL: EVVLTQSPGTLSLSPGERATLSCRASQSITGRYLAWYQQKPGQAPRLLMYGESSRVTGIPDRFSGGGSGTDFTLTISRLEPEDFAVYYCQHFASSPPTYTFGQGTKLEIR
no binding (tested: 200 µg/mL): [1] | [2] | [3]

B2: COV93-08 (antibody, V domains shown)
VH: QVQLRESGPGVVKPSGTLSLTCTVSGDFINNNRWWTWVRQSPGKGLEWIGEIYHSGSTNYNPSLKGRVTISVDKSKNHFSLKLTSVTAADTAMYYCARGGYCTVGDCHDNWFDPWGQGTLVTVSS
VL: DIQMTQSPSTLSASVGDRVTITCRASQNINSWLAWYQQKPGKAPKVLIYKASSLESGVPSRFSGSVSGTEFTLTISSLQPDDFATYYCQQYSTLSWTFGQGTKVDIK
no binding (tested: 200 µg/mL): all assays above

B3: COV93-38 (antibody, V domains shown)
VH: B2 VH with R5Q, T23A, I29S, Y53H, H54Q, G66S, V68I, H78Q, M93V, T103S
VL: B2 VL with N28T, T93S
no binding (tested: 200 µg/mL): all assays above

B4: COV72-37 (antibody, V domains shown)
VH: QVQLVQSGAEVKKPAASVKVSCKASGDTFSSHYMHWVRQAPGQGPEWMGIINPSGSGTAYGQKFQGRLTMTRDTSTSTVYMELSSLTSDDTAVYYCGGGSGGLFAYWGQGTLVTVSS
VL: EIVLTQSPGTLSLSPGERATLSCRASQIVRSNYLAWYQQKPGQAPRLLIYGASSRATGTPDRFSGGGSGTDFTLTINRLEPEDFAVYYCLQYDSSPPTYIFGQGTKLEIK
no binding (tested: 200 µg/mL): [1] | [2] | [3]

B5: COV77-05 (antibody, V domains shown)
VH: QMQLHESGPGLVKPSQTLSLTCAVSGGSISSDGYYWNWVRQHPGKGLELIAYIYYNGRPYYNPSLRSRVNISLDTSMNQFSLRMKSLTAADTAVYYCARGRLGYCAGGSCFLESFDYWGQGALVTVSS
VL: EIVMTQSPATLSVSPGETATLSCRASESISSNLAWYQQKPGQAPRLLIYGASTRATGIPARFSGSGSGTEFALTISSLQAEDFAVYSCQQYHNWLLTFGGGTKVEIK
no binding (tested: 200 µg/mL): [1] | [4] | [3]

B6: COV93-17 (antibody, V domains shown)
VH: EVQLVQSGAEVKKPGESLRISCRGSGYSFTNYWISWVRQMPGKGLEWMGRIDPTDSYTNYSPSFQGHVTISTDKSISTAYLQWSSLKASDTAMYYCARHKNGMIHEYDYWGQGILVTVSS
VL: DIQLTQSPSTLSASVGDRVTITCRASQSIRSWLAWYQQKPGKAPKLLIYRASSLESGVPSRFSGSGSGTEFTLTISSLQPDDFATYYCQQYGTFGPGTKVDIR
no binding (tested: 200 µg/mL): all assays above

B7: COV89-22 (antibody, V domains shown)
VH: QEQLVQSGAEVKKPGASVKVSCKSSGFTFSYFYLHWVRQAPGQGLEWMGIINPRGDGTRYAQKFQGRVTMTRDASTGTLYMELRSLRSEDTAVYYCARGADHGAFDIWGQGTMVTVSS
VL: EIVLTQSPGTLSLSPGERATLSCRASQSVRRNYFAWYQQKRGQAPRLLIYDASTRATGIPDRFSGSGSGTDFTLTISRLEPEDFAVYYCQQYDSSPPMYIFGQGTKLEIK
no binding (tested: 200 µg/mL): [1] | [3]

B8: COV77-42 (antibody, V domains shown)
VH: QVYLQESGPGLVKPSQTLSLTCAVSGGSIRSDGYYWTWIRQHPGKGLEWIGNTYYNGNTYYNPSLRSRVTTSLDTSKNQFSLKVVSMTGADTAVYYCARGRLGFCAGGACFLDTLDYWGQGTLVTVSS
VL: EIVMTQSPVTLSVSPGERVTLSCRADQSVNNNLAWYQQKPGQAPRLLIHGASTRATGIPARFSGSGSGTEFTLTISSLQSEDFAIYYCQQYYNWLLTFGGGTKLEIK
no binding (tested: 200 µg/mL): [1] | [4] | [3]

B9: COV30-35 (antibody, V domains shown)
VH: QVQLQESGPGQVKPSGTLSLTCAVSGGSINSSNWWSWVRQPPGKGLEWIGEIFHSGNTNYKPSLESRVTISFDKSKKELSLRLTSVTAADTAVYYCATLFCSGGTCYLGDWGQGTLVTVSS
VL: EIVLTQSPGTLSVSPGQRATLSCRASESVSSRYVAWYQQKPGQAPRLIIYGASSRATGIPDRFSGSGSGTEFILSISRLEPEDSAVYYCQQYGSSPTFGGGTKVEIK
no binding (tested: 200 µg/mL): [1] | [4] | [3]
